Seven variants from IntAct's records for PubMed 25910212 can be followed below.

The chains are these.
B1: Emerin (Homo sapiens), P50402 (parent)
chain: MDNYADLSDTELTTLLRRYNIPHGPVVGSTRRLYEKKIFEYETQRRRLSPPSSSAASSYSFSDLNSTRGDADMYDLPKKEDALLYQSKGYNDDYYEESYFTTRTYGEPESAGPSRAVRQSVTSFPDADAFHHQVHDDDLLSSSEEECKDRERPMYGRDSAYQSITHYRPVSASRSSLDLSYYPTSSSTSFMSSSSSSSSWLTRRAIRPENRAPGAGLGQDRQVPLWGQLLLFLVFVIVLFFIYHFMQAEEGNPF
partner: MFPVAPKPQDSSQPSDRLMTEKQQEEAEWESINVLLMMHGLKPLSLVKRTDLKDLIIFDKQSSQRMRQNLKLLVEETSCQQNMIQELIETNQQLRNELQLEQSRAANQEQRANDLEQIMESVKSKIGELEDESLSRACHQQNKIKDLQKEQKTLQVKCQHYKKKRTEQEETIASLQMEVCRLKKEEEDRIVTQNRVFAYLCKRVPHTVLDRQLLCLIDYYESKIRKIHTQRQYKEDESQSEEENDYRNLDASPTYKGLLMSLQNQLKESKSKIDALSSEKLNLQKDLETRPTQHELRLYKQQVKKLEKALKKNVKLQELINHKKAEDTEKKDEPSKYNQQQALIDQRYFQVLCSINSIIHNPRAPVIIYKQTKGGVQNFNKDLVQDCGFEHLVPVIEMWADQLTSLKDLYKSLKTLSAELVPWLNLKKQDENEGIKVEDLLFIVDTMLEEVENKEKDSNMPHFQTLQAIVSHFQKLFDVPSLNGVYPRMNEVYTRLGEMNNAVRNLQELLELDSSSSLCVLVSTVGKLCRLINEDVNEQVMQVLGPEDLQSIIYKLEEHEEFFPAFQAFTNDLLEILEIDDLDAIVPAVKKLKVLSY
B2: U4/U6 small nuclear ribonucleoprotein Prp31 (Homo sapiens), Q8WWY3 (parent)
chain: MSLADELLADLEEAAEEEEGGSYGEEEEEPAIEDVQEETQLDLSGDSVKTIAKLWDSKMFAEIMMKIEEYISKQAKASEVMGPVEAAPEYRVIVDANNLTVEIENELNIIHKFIRDKYSKRFPELESLVPNALDYIRTVKELGNSLDKCKNNENLQQILTNATIMVVSVTASTTQGQQLSEEELERLEEACDMALELNASKHRIYEYVESRMSFIAPNLSIIIGASTAAKIMGVAGGLTNLSKMPACNIMLLGAQRKTLSGFSSTSVLPHTGYIYHSDIVQSLPPDLRRKAARLVAAKCTLAARVDSFHESTEGKVGYELKDEIERKFDKWQEPPPVKQVKPLPAPLDGQRKKRGGRRYRKMKERLGLTEIRKQANRMSFGEIEEDAYQEDLGFSLGHLGKSGSGRVRQTQVNEATKARISKTLQRTLQKQSVVYGGKSTIRDRSSGTASSVAFTPLQGLEIVNPQAAEKKVAEANQKYFSSMAEFLKVKGEKSGLMST
partner: B1 partner
B3: DNA mismatch repair protein Mlh1 (Homo sapiens), P40692 (parent)
chain: MSFVAGVIRRLDETVVNRIAAGEVIQRPANAIKEMIENCLDAKSTSIQVIVKEGGLKLIQIQDNGTGIRKEDLDIVCERFTTSKLQSFEDLASISTYGFRGEALASISHVAHVTITTKTADGKCAYRASYSDGKLKAPPKPCAGNQGTQITVEDLFYNIATRRKALKNPSEEYGKILEVVGRYSVHNAGISFSVKKQGETVADVRTLPNASTVDNIRSIFGNAVSRELIEIGCEDKTLAFKMNGYISNANYSVKKCIFLLFINHRLVESTSLRKAIETVYAAYLPKNTHPFLYLSLEISPQNVDVNVHPTKHEVHFLHEESILERVQQHIESKLLGSNSSRMYFTQTLLPGLAGPSGEMVKSTTSLTSSSTSGSSDKVYAHQMVRTDSREQKLDAFLQPLSKPLSSQPQAIVTEDKTDISSGRARQQDEEMLELPAPAEVAAKNQSLEGDTTKGTSEMSEKRGPTSSNPRKRHREDSDVEMVEDDSRKEMTAACTPRRRIINLTSVLSLQEEINEQGHEVLREMLHNHSFVGCVNPQWALAQHQTKLYLLNTTKLSEELFYQILIYDFANFGVLRLSEPAPLFDLAMLALDSPESGWTEEDGPKEGLAEYIVEFLKKKAEMLADYFSLEIDEEGNLIGLPLLIDNYVPPLEGLPIFILRLATEVNWDEEKECFESLSKECAMFYSIRKQYISEESTLSGQQSEVPGSIPNSWKWTVEHIVYKALRSHILPPKHFTEDGNILQLANLPDLYKVFERC
partner: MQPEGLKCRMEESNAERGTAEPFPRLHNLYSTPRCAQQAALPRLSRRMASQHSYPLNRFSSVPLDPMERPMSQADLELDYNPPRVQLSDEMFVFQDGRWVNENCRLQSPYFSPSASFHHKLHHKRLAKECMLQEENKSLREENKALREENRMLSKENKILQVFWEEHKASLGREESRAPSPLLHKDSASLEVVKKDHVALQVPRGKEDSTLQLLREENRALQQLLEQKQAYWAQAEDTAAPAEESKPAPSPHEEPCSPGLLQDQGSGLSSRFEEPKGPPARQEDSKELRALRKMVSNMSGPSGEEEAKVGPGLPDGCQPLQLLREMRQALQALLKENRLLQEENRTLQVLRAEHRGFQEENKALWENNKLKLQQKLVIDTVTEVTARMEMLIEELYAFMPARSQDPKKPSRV

In the first assay the parent is B1. The conditions noted are these: with cep70_human CEP70, Q8NHQ1.
On to MDNYADLSDTELTTLLRRYNIPHGPVVGSTRRLYEKKIFEYETQRRRLSPPSSSAASSYSFSDLNSTRGDAVMYDLPKKEDALLYQSKGYNDDYYEESYFTTRTYGEPESAGPSRAVRQSVTSFPDADAFHHQVHDDDLLSSSEEECKDRERPMYGRDSAYQSITHYRPVSASRSSLDLSYYPTSSSTSFMSSSSSSSSWLTRRAIRPENRAPGAGLGQDRQVPLWGQLLLFLVFVIVLFFIYHFMQAEEGNPF [D72V], for which the “effect of a mutation on the interaction” value is “with no effect”.

On to MDNYADLSDTELTTLLRRYNIPHGPVVGSTRRLYEKKIFEYETQRRRLSPPSSSAASSYSFSDLNSTRGDADMYDLPKKEDALLYQSKGYNDDYYEESYFTTRTYGEPESAGPSRAVRQSVTSFPDADAFHHQVHDDDLLSSSEEECKDRERPMYGRDSAYQSITHYRPVSASRSSLDLSYYHTSSSTSFMSSSSSSSSWLTRRAIRPENRAPGAGLGQDRQVPLWGQLLLFLVFVIVLFFIYHFMQAEEGNPF [P183H], for which the “effect of a mutation on the interaction” value is given as “with no effect”.

Regarding MDNYADLSDTELTTLLRRYNIPHGPVVGSTRRLYEKKIFEYETQRRRLSPPSSSAASSYSFSDLNSTRGDADMYDLPKKEDALLYQSKGYNDDYYEESYFTTRTYGEPESAGPSRAVRQSVTSFPDADAFHHQVHDDDLLSSSEEECKDRERPMYGRDSAYQSITHYRPVSASRSSLDLSYYTTSSSTSFMSSSSSSSSWLTRRAIRPENRAPGAGLGQDRQVPLWGQLLLFLVFVIVLFFIYHFMQAEEGNPF [P183T], the “effect of a mutation on the interaction” value is on record as “with no effect”.

For MDNYADLSDTELTTLLRRYNIPHGPVVGSTRRLYEKKIFEYETQRRRLSPPSSFAASSYSFSDLNSTRGDADMYDLPKKEDALLYQSKGYNDDYYEESYFTTRTYGEPESAGPSRAVRQSVTSFPDADAFHHQVHDDDLLSSSEEECKDRERPMYGRDSAYQSITHYRPVSASRSSLDLSYYPTSSSTSFMSSSSSSSSWLTRRAIRPENRAPGAGLGQDRQVPLWGQLLLFLVFVIVLFFIYHFMQAEEGNPF [S54F], the “effect of a mutation on the interaction” value was “with no effect”.

The variants in the next assay derive from B2. The conditions noted are these: with cep70_human CEP70, Q8NHQ1.
As for MSLADELLADLEEAAEEEEGGSYGEEEEEPAIEDVQEETQLDLSGDSVKTIAKLWDSKMFAEIMMKIEEYISKQAKASEVMGPVEAAPEYRVIVDANNLTVEIENEVNIIHKFIRDKYSKRFPELESLVPNALDYIRTVKELGNSLDKCKNNENLQQILTNATIMVVSVTASTTQGQQLSEEELERLEEACDMALELNASKHRIYEYVESRMSFIAPNLSIIIGASTAAKIMGVAGGLTNLSKMPACNIMLLGAQRKTLSGFSSTSVLPHTGYIYHSDIVQSLPPDLRRKAARLVAAKCTLAARVDSFHESTEGKVGYELKDEIERKFDKWQEPPPVKQVKPLPAPLDGQRKKRGGRRYRKMKERLGLTEIRKQANRMSFGEIEEDAYQEDLGFSLGHLGKSGSGRVRQTQVNEATKARISKTLQRTLQKQSVVYGGKSTIRDRSSGTASSVAFTPLQGLEIVNPQAAEKKVAEANQKYFSSMAEFLKVKGEKSGLMST [L107V], the “effect of a mutation on the interaction” value is given as “with no effect”.

The variants in another assay derive from B3. Conditions: with CBY2, Q8NA61-2.
Consider G244D, for which the “effect of a mutation on the interaction” value is given as “with no effect”.

Turning to R472I, the “effect of a mutation on the interaction” value is “with no effect”.
